One molecule from US20220143136A1, “USE OF ANNEXINS IN PREVENTING AND TREATING MUSCLE MEMBRANE INJURY” (NORTHWESTERN UNIVERSITY, priority 2018, published 2022) can be followed below.

Assay [1] deals with Sgcg-null mice. Kind of assay: Anti-HIS immunofluorescence localization after systemic injection, Sgcg-null versus wildtype. The class given is in vivo, mouse. The procedure:
Immunofluorescence microscopy. Mice were systemically injected with recombinant annexin A6 with a C-terminal HIS tag (R&D). Muscle was harvested and flash frozen. Muscle sections (10 μm thick) from the center of frozen-embedded muscles were collected on the cryostat (chamber, −20° C.; sample, −15° C.; catalog number CM1950; Leica, Wetzlar, Germany) for immunostaining. Tissues were fixed with 4% paraformaldehyde for 10 minutes on ice. Block and permeabilization were with 0.1% Triton (catalog number X-100; Sigma-Aldrich), 10% fetal bovine serum, and PBS for 60 minutes. For laminin detection, anti-laminin antibody was used at a dilution of 1:100 and for HIS detection, anti-HIS antibody was used at 1:100 overnight at 4° C. Hoechst labelled nuclei. Sections were PBS rinsed, incubated with secondary antibody for 1 hour, PBS rinsed, and mounted. Imaging was performed using a Zeiss Axio Observer A1 microscope (Zeiss, Oberkochen, Germany).

Assay [2] concerns mdx/hLTBP4 myofibers. Kind of assay: Laser-induced membrane injury, FM 4-64 dye uptake, dystrophic myofibers. The following applies: 25 μg/ml extracellular recombinant protein vs vehicle control, dystrophic (DMD model) myofibers. The class given is cell-based, mouse. As for the experimental part:
For recombinant myofibers studies, myofibers were isolated from mdx/hLTBP4 mice as described above. Myofibers were incubated in Ringer's media with or without 25 μg/ml recombinant annexin A6 (5186-A6-050, R&D systems). FM 4-64 ([…]) was added to the myofibers just prior to imaging. Images were acquired and quantitated as described above. FM 4-64 area was measured using FIJI at imaging endpoint from a single slice near the middle of the z-stack. Z-stack step size (0.125 μm) was acquired from cap end to end.
Multiphoton laser injury and imaging. Fibers were subjected to laser-induced damage at room temperature using the Nikon A1R-MP multiphoton microscope. Imaging was performed using a 25×1.1 NA objective directed by the NIS-Elements AR imaging software. Green fluorescence protein (GFP) and FM 4-64 were excited using a 920 nm wavelength laser and emission wavelengths of 575 nm and 629 nm were collected respectively. To induce laser damage on isolated myofibers, a diffraction limited spot (diameter approximately 410 nm) was created on the lateral membrane of the myofiber using a 920 nm wavelength laser at 10-15% laser power for 1 second. […]
Multiphoton laser injury and imaging. […] Green fluorescence protein (GFP) and FM 4-64 were excited using a 920 nm wavelength laser and emission wavelengths of 575 nm and 629 nm were collected respectively. […]

“Also recorded” adds a separate entry of the source.

B1: recombinant annexin A6: recombinant human annexin A6 protein with C-terminal HIS tag (5186-A6-050, R&D systems); mouse protein from Northwestern core in one cohort (protein, UniProt P08133 2-673, looked up)
Annexin A6: AKPAQGAKYRGSIHDFPGFDPNQDAEALYTAMKGFGSDKEAILDIITSRSNRQRQEVCQSYKSLYGKDLIADLKYELTGKFERLIVGLMRPPAYCDAKEIKDAISGIGTDEKCLIEILASRTNEQMHQLVAAYKDAYERDLEADIIGDTSGHFQKMLVVLLQGTREEDDVVSEDLVQQDVQDLYEAGELKWGTDEAQFIYILGNRSKQHLRLVFDEYLKTTGKPIEASIRGELSGDFEKLMLAVVKCIRSTPEYFAERLFKAMKGLGTRDNTLIRIMVSRSELDMLDIREIFRTKYEKSLYSMIKNDTSGEYKKTLLKLSGGDDDAAGQFFPEAAQVAYQMWELSAVARVELKGTVRPANDFNPDADAKALRKAMKGLGTDEDTIIDIITHRSNVQRQQIRQTFKSHFGRDLMTDLKSEISGDLARLILGLMMPPAHYDAKQLKKAMEGAGTDEKALIEILATRTNAEIRAINEAYKEDYHKSLEDALSSDTSGHFRRILISLATGHREEGGENLDQAREDAQVAAEILEIADTPSGDKTSLETRFMTILCTRSYPHLRRVFQEFIKMTNYDVEHTIKKEMSGDVRDAFVAIVQSVKNKPLFFADKLYKSMKGAGTDEKTLTRIMVSRSEIDLLNIRREFIEKYDKSLHQAIEGDTSGDFLKALLALCGGED
modifications: C-terminal His tag
notes: recombinant human annexin A6 protein with C-terminal HIS tag (5186-A6-050, R&D systems); mouse protein from Northwestern core in one cohort
As for B1, the “anti-HIS immunofluorescence at the muscle membrane” value is recorded as “localized to the muscle membrane” in assay [1] (Sgcg-null (LGMD2C) muscle); “increased” in assay [1] (Sgcg-null (LGMD2C) muscle, listed as rANXA6); “minimal” in assay [1] (uninjured wildtype muscle). In addition, the “FM 4-64 fluorescence / dye uptake after laser injury” value is “reduced” in assay [2] and “significantly smaller; also recorded: significantly less” in assay [2] (listed as rANXA6).
